Tested on: MS2 coat protein
Assay: apparent KD of MS2 coat protein; designed switch direction (-1 OFF switch, 1 ON switch): 1; higher = weaker reporter binding
In short: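 Transcription of designed RNA switches on Illumina chips was done by stalled E. coli RNA polymerase. SNAP-549-labelled MS2 coat protein was then titrated in doubling steps from 0.7 or 1.5 nM to 3 µM, with steps of 0.8–1.5 h at the lowest and 10–20 min at the highest concentration. The per-design median over clusters of curve-fitted normalised fluorescence is reported as apparent KD.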

[1] = input ligand: microRNA oligo, concentration not stated
[2] = Eterna round: R95, input ligand: FMN 200 uM
[3] = Eterna round: R95, input ligand: microRNA oligo, concentration not stated
[4] = Eterna round: R95, input ligand: none

Row | Sequence | apparent KD of MS2 coat protein [1] | apparent KD of MS2 coat protein (input ligand: FMN 200 uM) | apparent KD of MS2 coat protein (input ligand: none) | apparent KD of MS2 coat protein [2] | apparent KD of MS2 coat protein [3] | apparent KD of MS2 coat protein [4]
1 | UGCCUGAGUCGAGGAUAUUAUGGAUCCUCUAAUACAUGAGGAUCACCCAUGUAAUUAAUUAUACAUGAGAAGGUGACUCAGGCU [SSNG2/12-B1] (Eterna round: R96, puzzle: Same State NG 2) | 293 nM |  |  |  |  | 
2 | GCGAGCGUACUUGCUACAUGAGGAUCACCCAUGUUUAUUGGACAGGAUAUGGUACCGUUUCGGUACCAGAAGGGUCCACAUGUA [JL SSNG3 3.85] (Eterna round: R96, puzzle: Same State NG 3) | 198 nM | 124 nM | 549 nM |  |  | 
3 | UCUUGGUUUUUGCUCGUUUUUUGUGUUGAACAUGAGGAUCACCCAUGUAUUGUACGGUCCGAUUUAAUAAUGGUCCG [JMF 22] (puzzle: Sensor for hsa-mir-208a) |  |  |  | 23.5 nM | 14.4 nM | 25.5 nM
4 | GCGGUACCUAACAUGAGGAUCACCCAUGUUCCGGAAACGGCACAGGAUAUCUGUCCGAAAAGGUCAGAGAAGGGUGAAAACCGC [Fiskers NG3ss - 94] (Eterna round: R96, puzzle: Same State NG 3) | 396 nM | 489 nM | 478 nM |  |  | 
5 | UACAAUCUAUCUGAGGAUAUCAUGAAAAAAACAUGAGGAUCACCCAUGUGCAGGAAAACUGCAUAUGAGAAGGCAGAUAGAUUGC [salish99_SS2_r3_008] (Eterna round: R96, puzzle: Same State 2) | 458 nM |  |  |  |  | 
6 | AGCUAAAACGAAGGAUAUACAAACAUGAGGAUCACCCAUGUAUACAUGGUUUGUUGUGACCACAUGUAGAAGGUCGUACUAACA [SameState NG2 #18] (Eterna round: R96, puzzle: Same State NG 2) | 405 nM | 178 nM | 358 nM |  |  | 
7 | GAGGGACAGACCAACAUGAGGAUCACCCAUGUCCUCGCAGGUCAGGAUAUCCCGCCAACAGGCGAGGAGAAGGGACGGUGAACC (Eterna round: R96, puzzle: Same State NG 3) | 672 nM | 610 nM | 713 nM |  |  | 
8 | UAAACUUCUUUUAGUGUAAUGCAAGUGAUACAUGAGGAUCACCCAUGUUUUGGAUCGUGUUAUUUUGUUCGUCUUAA [JR_SHM208A_Sub077] (puzzle: Sensor for hsa-mir-208a) |  |  |  | 33.2 nM | 30.3 nM | 42.9 nM
9 | UUGAAGAAUUAAGGAUAUUGAAUACAUAUGUUUAACAUGAGGAUCACCCAUGUGGGUUGCGGUAUCGAGAAGGUAAAUUAAAAG [Mat - Same State NG 2 - JL mod - D2] (Eterna round: R96, puzzle: Same State NG 2) | 179 nM | 142 nM | 131 nM |  |  | 
10 | AUCUCUGUGCCGCAGGAUAUACCAACGGCUACAUGAGGAUCACCCAUGUCAUACCGUCGAAAGUGGUAGAAGGGUGUGCACGAGC [Reteonar] (puzzle: Same State 2) |  |  |  | 17.7 nM | 90.6 nM | 113 nM
11 | UGUUGUAUUACAGGAUAUCUAGUAUUUUUAUUGAGAGAAGGGUAUUCACAUGAGGAUCACCCAUGUAUAUACGAGGAAGUUGUG [JMF's solution 55] (Eterna round: R96, puzzle: Same State NG 1) | 34.8 nM |  |  |  |  | 
12 | UAUGAACAUGAGGAUCACCCAUGUGGAAAAGACACAGGAUAUCAUCCCGGACGUGCGAGAUGAGAAGGGUGAUGGU [Edrive] (puzzle: Same State 1) |  |  |  | 267 nM | 205 nM | 367 nM
13 | GUGUUACAUGAGGAUCACCCAUGUUGUUUUAGAUAAGGAUAUAUGGUAACGAGAGAAAUAAUAGAAGGUAUUAGGC [JR_SS1_Sub062] (puzzle: Same State 1) |  |  |  |  | 29.9 nM | 
14 | GGGAGAGGUACAGGAUAUGGUGAGGAUCACCCACUAGAAGGGUGCACAUGUGAAUCGGACAUGAGGAUCACCCAUGUUUGGCGU (Eterna round: R96, puzzle: Same State NG 1) | 74.8 nM | 86.7 nM | 133 nM |  |  | 
15 | UGGCUCAGAGCAGGAUAUAUGCGAUCACAUGAGGAUCACCCAUGUCUCGAGCUUCGGCUCGAGGCAUAGAAGGGCUCUGAGCCA [SSNG2/4-B2] (Eterna round: R96, puzzle: Same State NG 2) | 26.8 nM | 14.4 nM | 36.4 nM |  |  | 
16 | GAGUGGUAAAGAGGAUAUGCAUUGUUAUUAAAUGCAGAAGGUUUUAACAUGAGGAUCACCCAUGUAGGACUAUUCCUGUGUUUC [Parity 65 - Jieux - Same State NG 1] (Eterna round: R96, puzzle: Same State NG 1) | 11.4 nM |  |  |  |  | 

Row | Sequence | apparent KD of MS2 coat protein [1] | apparent KD of MS2 coat protein (input ligand: FMN 200 uM) | apparent KD of MS2 coat protein (input ligand: none) | apparent KD of MS2 coat protein [2] | apparent KD of MS2 coat protein [3] | apparent KD of MS2 coat protein [4]
17 | UGGCUCAGACUAGGAUAUGAUCAUGGCGCUUCGGCGCAUACAUGAGGAUCACCCAUGUAAAGUGAUCAGAAGGAGUCUGAGCCA [SSNG2/7-C2] (Eterna round: R96, puzzle: Same State NG 2) | 11.9 nM | 14.5 nM | 15.8 nM |  |  | 
18 | GCUCGAUGUGCUGUCUACAUGAGGAUCACCCAUGUAGAUGCGGAGGAUAUCUACGUGCUUUAUGUAGAGAAGGUCGUAUCGAGC [SameState NG3 #84] (Eterna round: R96, puzzle: Same State NG 3) | 50.2 nM | 52.5 nM | 90.4 nM |  |  | 
19 | AAACUACAUGAGGAUCACCCAUGUGAAAACCGCAUAGGAUAUCCGCAGCAAUAAACUGACGGAGAAGGGUGACCGG [Sobearcege] (puzzle: Same State 1) |  |  |  | 306 nM | 414 nM | 549 nM
20 | AACAGUCGGCGAGGAUAUGGACAUACGGACUAACCCGUAUGGCUCACAUGAGGAUCACCCAUGUUCUAGAAGGCGCCACUGAAA [Raridi] (Eterna round: R96, puzzle: Same State NG 2) | 43.4 nM | 14.6 nM | 74 nM |  |  | 
21 | AUUAUUAAUGCAGGAUAUGAUUAACAUGAGGAUCACCCAUGUGGUGUUGUGAGUAAGGAGAGUGAUCAGAAGGGCAUUUUUUAU [JMF's solution 15] (Eterna round: R96, puzzle: Same State NG 2) | 387 nM | 959 nM | 1190 nM |  |  | 
22 | GUGGCCCAGGCACAGGAUAUGUUUCUCGUAACAUGAGGAUCACCCAUGUGCCUAUGAGAUUUAAUGCAGAAGGGUGCACGCCACU [Mat - Same State 2 - Mod of UCT - D79] (puzzle: Same State 2) |  |  |  | 24.1 nM | 95.8 nM | 184 nM
23 | GCGAUCUACCGGAAGGUAGAUCGGCUUGUACAUGAGGAUCACCCAUGUCUGUACAAGCUUUUUGCUCGUCUUAUGGG [salish99-hsa-208a-66] (Eterna round: R96, puzzle: Sensor for hsa-mir-208a) | 27.9 nM | 1150 nM | 713 nM |  |  | 
24 | UGUUGUAUUACAGGAUAUCUAUUAUUUUAAUUUAGAGAAGGGUAUUCACAUGAGGAUCACCCAUGUAUAUACGAGGAAGUUGUG [JMF's solution 21] (Eterna round: R96, puzzle: Same State NG 1) | 38.4 nM |  |  |  |  | 
25 | CUGCGUAACACAGGAUAUACCUCCGCAAGGAACGUAGAAGGGUGAGUAGCAGACAUGAGGAUCACCCAUGUAAAGGCCAAGGCC [Enqudiso] (Eterna round: R96, puzzle: Same State NG 1) | 95.7 nM | 48.4 nM | 98 nM |  |  | 
26 | GGUAGGUUACUACCAGACAUGAGGAUCACCCAUGUAAAUGGGAAGGAUAUGGUACCGUUUCGGUACCAGAAGGUCCUAAAUGAG [JL SSNG3 1.47] (Eterna round: R96, puzzle: Same State NG 3) | 644 nM | 301 nM | 1750 nM |  |  | 
27 | AUAAGUUUGAUGCUCGUCUCUCCGUACAAACAUGAGGAUCACCCAUGUGGUCGGGAAGUAGCCCGGCCAGUAUGGCA [Arbitius] (puzzle: Sensor for hsa-mir-208a) |  |  |  | 43.3 nM | 17.9 nM | 47.3 nM
28 | AUUUAACAAGCUUUUUGCUCGUCUUAUAAACAUGAGGAUCACCCAUGUAAUAGCGUGAGAGUAAUUAAUUAAAUAAU [JMF 90] (puzzle: Sensor for hsa-mir-208a) |  |  |  | 14.6 nM | 46.9 nM | 13.3 nM
29 | AGGAAGGAGACUGAGGAUAUCGUUGAGAGGACAUGAGGAUCACCCAUGUGUAUAGGAUUGGAGAACGAGAAGGCAGAGGAGUGGG [JR_SS2_Sub047] (puzzle: Same State 2) |  |  |  | 58 nM | 76.2 nM | 101 nM
30 | GCCGCGUUUCGCGCCUACAUGAGGAUCACCCAUGUUUGUAGGCAGGAUAUCGUUUGCUUUGCAGGCGAGAAGGGCUGUUGUGGC [salish99_SSNG3_R04_016] (Eterna round: R96, puzzle: Same State NG 3) | 39.1 nM | 43 nM | 46.5 nM |  |  | 
31 | GGUAAGAAUUAAGGAUAUCGAGUACAUAUGUUUAACAUGAGGAUCACCCAUGUGGGUUGCGGUAUCGAGAAGGUAAAUUACAAG [Mat - same State NG 2 - JL mod - D62] (Eterna round: R96, puzzle: Same State NG 2) | 35.7 nM | 40.7 nM | 41.8 nM |  |  | 
32 | GGAGAGAGAGCACAGGAUAUGAGAGGAGAGACAUGAGGAUCACCCAUGUAAGAGAGAGAGGAGAGUUAGAAGGGUGAGAGAGAGG [Altered State 2-20 - Jieux - Same State 2] (puzzle: Same State 2) |  |  |  | 54.7 nM | 43 nM | 102 nM

From the supplement of paper PMC9170038
